Source: US5880093A, “Use of parathormone, its biologically active fragments and correlated peptides, for the preparation of pharmaceutical compositions useful for the treatment of pregnancy” (priority 1992, dated 1999)
Entries after “also recorded” stand apart in the source; their conditions may differ.

What was measured:
uterine contractions = assay: clinical observation of pregnant women with symptoms of likely premature birth (cardiotocography, arterial pressure, heart rate); type: in vivo, human
Method: Three pregnant women having symptoms indicating the likelihood of premature birth have been observed while in their 34-36th week of pregnancy. […] Arterial pressure, heart rate and skin coloring were evaluated. The women were clearly aware of the contractions and of the pain caused by such contractions.
The women were administered 100 Units of synthetic Parathormone 1-34 (two vials according to Examples 1 and 2) by rapid infusion (10 minutes), diluted in 200 cc of physiological solution. Two blood samples were taken before and after infusion and the serum was frozen and stored at -20° C. for the evaluation of the mineral elements (calcium, phosphorous, magnesium, alkaline phosphatase, parathormone, progesterone, estradiol).

human myometrium = assay: in vitro motility of fragments of myometrium of pregnant women, contraction induced by oxytocin; conditions: PTH 8.5×10^-8 M, oxytocin 1×10^-2 U, myometrium taken during Caesarean birth, FIG. 2 vs FIG. 1
Description: Experimental Trials on the in vitro motility of fragments of myometrium of pregnant women

[1] = test system: contractions induced by PGF2alpha; assay: contractions induced by PGF2alpha; type: in vivo; conditions: PGF2alpha 1 mg/kg; PTH 4×10^-4 mg/Kg; FIG. 4 vs FIG. 3
Description: Furthermore. Parathormone, has also been essayed for the contractions induced by PGF2alpha according to the technique described in the British Journal of Pharmacology 93: 185-191 (1988).

rat uterus = conditions: in vitro, studies reported in the literature; cited from earlier work
[2] = three pregnant women, 34-36th week, 100 Units by rapid infusion (10 minutes)

With Parathormone 1-34 the “arterial pressure and heart rate of the mother” value (uterine contractions; 100 Units by rapid infusion) was “did not show variations of worthwhile note”, the “patient-reported uterine contractions and pain caused by the contractions” value (uterine contractions; 100 Units by rapid infusion, pain particularly in the lumbar-sacral region) was “immediate disappearance of uterine contractions and of pain” and the fetal heart beat (uterine contractions; cardiotocography, 40 minutes monitoring, 100 Units by rapid infusion, FIG. 5) was “did not show variations and remained within the normal limits”. For the same molecule, the “cardiotocography waves referring to uterine contractions” value (uterine contractions; period of monitoring 40 minutes, 100 Units by rapid infusion, FIG. 5) was “disappearance of waves referring to uterine contractions”, the “efficacy on uterine contractility” value (uterine contractions; [2]) was “efficacy of Parathormone on uterine contractility” and the “side effects in mother and fetus” value (uterine contractions; [2]) was “no side effects have been noted either in the mother or the fetus; also recorded: no side effects were noted in relation to the infusion of the drug”.

B1: Parathormone (protein, UniProt P01270 32-115, looked up)
Parathyroid hormone: SVSEIQLMHNLGKHLNSMERVEWLRKKLQDVHNFVALGAPLAPRDAGSQRPRKKEDNVLVESHEKSLGEADKADVNVLTKAKSQ
modifications: Parathyroid hormone
notes: intact (whole) human parathyroid hormone
In the case of B1, the “effect on contraction of human myometrium induced by oxytocin” value (human myometrium) is reported as “net inhibitory effect”, the “effect on contraction of human myometrium induced by oxytocin” value (human myometrium; listed as intact human parathormone) is reported as “inhibitory effect (flat trace)” and the “effect on contractions induced by PGF2alpha (intensity and duration)” value [1] is reported as “clear inhibitory effect both in terms of intensity and duration”. For the same molecule, the “action on contractility of the rat uterus induced by oxytocin, acetylcholine and prostaglandin” value (rat uterus) was “inhibitory action”.
